This is an account of results in US20230382979A1 (ADAPTIVE BIOTECHNOLOGIES, published 2023).

For experiment [1], the target named is SARS-CoV (2003) spike protein borne on lentiviral pseudovirus (SARS-CoV (2003), UniProt P59594 14-1255). The experiment is described as follows: cell-based or functional assay.
For experiment [2], the target named is SARS-CoV-2 spike protein, WA1/2020, borne on lentiviral pseudovirus (SARS-CoV-2, WA01/2020 strain, UniProt P0DTC2 14-1273). Put plainly: cell-based or functional assay.
In another experiment the target is T1, MERS-COV (S1+S2).
T1 chain: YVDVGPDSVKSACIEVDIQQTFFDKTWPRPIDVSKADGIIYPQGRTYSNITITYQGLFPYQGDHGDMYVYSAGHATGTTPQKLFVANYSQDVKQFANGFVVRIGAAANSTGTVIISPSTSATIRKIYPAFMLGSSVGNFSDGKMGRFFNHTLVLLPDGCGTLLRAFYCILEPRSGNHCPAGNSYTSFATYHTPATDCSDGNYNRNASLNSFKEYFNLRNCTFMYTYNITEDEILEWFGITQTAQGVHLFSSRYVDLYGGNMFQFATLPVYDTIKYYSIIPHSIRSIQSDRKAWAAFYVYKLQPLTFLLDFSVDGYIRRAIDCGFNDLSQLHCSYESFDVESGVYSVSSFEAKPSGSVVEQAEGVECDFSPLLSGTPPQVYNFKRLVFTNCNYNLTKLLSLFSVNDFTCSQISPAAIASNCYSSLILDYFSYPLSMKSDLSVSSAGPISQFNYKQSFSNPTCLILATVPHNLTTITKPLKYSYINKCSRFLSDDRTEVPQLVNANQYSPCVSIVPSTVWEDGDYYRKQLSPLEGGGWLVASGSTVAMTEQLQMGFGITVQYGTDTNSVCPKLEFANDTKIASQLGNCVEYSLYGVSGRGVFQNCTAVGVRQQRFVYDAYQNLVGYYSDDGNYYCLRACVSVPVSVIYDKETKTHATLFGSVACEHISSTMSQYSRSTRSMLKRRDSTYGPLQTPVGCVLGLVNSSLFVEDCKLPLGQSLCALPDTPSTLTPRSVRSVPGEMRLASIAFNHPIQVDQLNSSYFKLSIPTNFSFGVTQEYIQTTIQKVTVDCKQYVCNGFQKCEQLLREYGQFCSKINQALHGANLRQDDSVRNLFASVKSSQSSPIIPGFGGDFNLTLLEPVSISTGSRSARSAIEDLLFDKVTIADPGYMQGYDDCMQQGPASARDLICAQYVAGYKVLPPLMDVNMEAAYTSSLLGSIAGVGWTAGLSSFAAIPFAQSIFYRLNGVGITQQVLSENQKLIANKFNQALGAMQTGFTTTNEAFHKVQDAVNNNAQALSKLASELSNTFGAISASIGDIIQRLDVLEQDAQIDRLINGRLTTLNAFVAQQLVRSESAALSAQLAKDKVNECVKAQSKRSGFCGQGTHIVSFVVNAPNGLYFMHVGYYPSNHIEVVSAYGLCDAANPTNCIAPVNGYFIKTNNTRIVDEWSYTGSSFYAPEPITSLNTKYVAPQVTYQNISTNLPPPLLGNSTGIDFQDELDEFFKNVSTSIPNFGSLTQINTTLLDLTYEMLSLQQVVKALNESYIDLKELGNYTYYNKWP
Put plainly: dose-response ELISA on coated spike antigen. In general terms: In an ELISA, binding on a coated surface is turned into a signal by an enzyme label.

In experiment [3] the target is T2, SARS-CoV-2 spike (S) protein trimer, WA01/2020 strain (SARS-CoV-2, WA01/2020 strain, UniProt P0DTC2 16-1213). Put plainly: dose-response ELISA on coated spike antigen.
Another experiment concerns the target T3, MERS-COV (S2).
T3 chain: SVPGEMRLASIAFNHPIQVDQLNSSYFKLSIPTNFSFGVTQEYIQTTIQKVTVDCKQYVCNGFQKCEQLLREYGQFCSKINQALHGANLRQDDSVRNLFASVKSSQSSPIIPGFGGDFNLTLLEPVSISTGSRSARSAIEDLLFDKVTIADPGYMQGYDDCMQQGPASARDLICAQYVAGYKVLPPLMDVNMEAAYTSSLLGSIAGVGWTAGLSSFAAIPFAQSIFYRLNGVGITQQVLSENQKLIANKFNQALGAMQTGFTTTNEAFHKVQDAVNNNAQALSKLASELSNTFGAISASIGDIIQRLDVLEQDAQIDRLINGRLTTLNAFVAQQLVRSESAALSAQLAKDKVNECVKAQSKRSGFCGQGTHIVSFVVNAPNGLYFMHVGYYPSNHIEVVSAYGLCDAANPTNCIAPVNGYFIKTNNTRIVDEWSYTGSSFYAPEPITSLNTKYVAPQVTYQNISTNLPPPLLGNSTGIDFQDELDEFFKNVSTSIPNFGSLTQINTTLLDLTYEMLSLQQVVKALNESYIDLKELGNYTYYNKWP
Put plainly: dose-response ELISA on coated spike antigen.

For experiment [4], the target named is T2, SARS-CoV-2 spike (S) protein trimer, …. The experiment is described as follows: dose-response ELISA on coated antigen.
Experiment [5] concerns the target T4, S1 subunit of the SARS-CoV-2 spike protein, WA01/2020 strain (SARS-CoV-2, WA01/2020 strain, UniProt P0DTC2 16-685). The experiment is described as follows: dose-response ELISA.
Experiment [6] concerns the target T2, SARS-CoV-2 spike (S) protein trimer, ….
Experiment [7] concerns the target T4, S1 subunit of the SARS-CoV-2 spike …. The experiment is described as follows: dose-response ELISA on coated antigen.
Experiment [8] has as its target T5, SARS-CoV-2 nucleocapsid (N) protein (SARS-CoV-2, UniProt P0DTC9 1-419). The experiment is described as follows: ELISA, antibody at 0.1 ug/mL.
Experiment [9] has as its target T6, S2 subunit of the SARS-CoV-2 spike protein, WA01/2020 strain (SARS-CoV-2, WA01/2020 strain, UniProt P0DTC2 686-1213). Put plainly: dose-response ELISA on coated spike antigen.
The target in experiment [10] is T4, S1 subunit of the SARS-CoV-2 spike ….
For experiment [11] the target is unchanged. The experiment is described as follows: ELISA screening, antibody concentration not given.
Experiment [12] concerns the target T5, SARS-CoV-2 nucleocapsid (N) protein. The experiment is described as follows: ELISA screening, antibody concentration not given.
Experiment [13] has as its target T6, S2 subunit of the SARS-CoV-2 spike …. Put plainly: ELISA screening, antibody concentration not given.
For experiment [14], the target named is T2, SARS-CoV-2 spike (S) protein trimer, …. Put plainly: ELISA screening, antibody concentration not given.
Experiment [15] has as its target T5, SARS-CoV-2 nucleocapsid (N) protein. Put plainly: ELISA, antibody at 0.1 ug/mL. The source holds these as a separate data set.
Experiment [16] addresses T6, S2 subunit of the SARS-CoV-2 spike …. The experiment is described as follows: ELISA, antibody at 0.1 ug/mL.

B1: antibody 1439 (antibody, V domains shown)
VH: QVQLQESGPGLVKPSETLSLTCTVSGDSISTYYWSWIRQPPGKGLEWIGYIHYSGSTNYNPSLKSRVAVSVDTSKNQFSLKLSSVTAADTAVYYCARGGGVFGVVINFDYWGQGILVTVSS
VL: NFMLTQPYSVSESPGKTVTISCTRSSGSIASNYVQWYQQRPGSAPTTVIYEDNQRPSGVPDRFSGSIDSSSNSASLTISGLKTEDEADYYCQSRDSSNPVVFGGGTKLTVL
One may read the EC50 (read off the curve) as the concentration that produces a half-maximal response. Read a high EC50 (read off the curve) as a need for much substance. Take B1: the “Pseudo Neut, SARS-CoV 2003 IC50” value in experiment [1] is 29 nM. Moreover, in experiment [2], the “Pseudo Neut, WA1/2020 IC50 (pM)” value was determined as 30200 pM. Moreover, the binding result in the experiment with MERS-COV (S1+S2) and with MERS-COV (S2) was “no binding (tested: 10000 ng/ml)” throughout. In addition, the “EC50 (read off the curve)” value in experiment [3] is about 0.1 µg/mL.

B2: antibody 2606 (antibody, V domains shown)
VH: EVQLVESGGGLVKPGGSLRLSCAASGFTFSSYSMNWVRQAPGKGLEWVSSITSSSGYMYYADSVKGRFTISRDNAKNSLYLQLNSLRAEDTAVYYCAKDSAFDLWEVRSYYYVMDVWGQGTTVTVSS
VL: not shown
Broadly, the EC50 is the concentration needed to bring the measured effect to its halfway point. In general, Kd refers to the constant that tells how readily two partners part at equilibrium. Lower therefore signals higher affinity. As to B2, the midpoint of the response in experiment [4], the EC50, lay at 0.057 nM. Further, in experiment [5], the binding result is reported as “no binding”. This molecule came in with a Kd in experiment [6] of 0.00787 nM.

B3: antibody 2432 (antibody, V domains shown)
VH: QVQLVQSGAEVKKPGSSVKVSCKASGDTFSSYAISWVRQAPGQGLEWLGGIIPIFGSADYAQKFQGRVTITADEFTSTAYMELSSLRSEDTAVYFCAREKYGDYGEGPLYNFDYWGQGTLVTVSS
VL: not shown
The molecule B3 registered an EC50 in [4] of 0.024 nM. In experiment [5], the binding result is listed as “no binding”. In experiment [6], this molecule registered a Kd of 0.243 nM.

B4: antibody 2793 (antibody, V domains shown)
VH: QVQLVQSGAEVKKPGASVKVSCKVSGFTLPELSIHWVRQAPGKGLEWMGGFDPEDAKTIYAQKFQGRVTMTEDTSTDIAYMELNSLRSDDTAVYYCATGSPFGVVGNWLDPWGQGTLVTVSS
VL: QSALTQPASVSGSPGQSITISCTGTSSDVGDFSYVSWYQQHPGKAPKLMIYEVTKRPSGVSNRFSGSKSGNTASLTISGLQTEDEADYYCTSYTSSRLVLFGGGTKLTVL
For the molecule B4, the EC50 was found to be 0.113 nM in experiment [7] and 0.068 nM in experiment [4]. In addition, the binding result is “no binding (tested: 0.1 ug/mL)” in [8], “no binding (tested: 10000 ng/ml)” with MERS-COV (S1+S2), “no binding (tested: 10000 ng/ml)” in experiment [9] and “no binding (tested: 10000 ng/ml)” with MERS-COV (S2). This molecule also showed an equilibrium dissociation constant (Kd) in experiment [10] of 0.398 nM.

B5: antibody 1959 (antibody, V domains shown)
VH: QVQLVQSGTEVKKPGSSVRVSCQASGDTFTSHAIIWIRQAPGQGLEYLGRIIPVLDITNAAQRFLGRLTLTADKSTTTAYMELSSLRSEDTAVYYCARAPFGLIVMYDHWGQGTLVTVTA
VL: EIVLTQSPGTLSLSPGERATLSCRASQSVSGNFLAWYQQKPGQAPRLLIHETSKRATGIPDRVSGGGSGTDFTLTISRLEPEDFAVYHCQQYGTTAVTFGQGTRLDMK
As to B5, the binding result in experiment [11], in experiment [12], in [13] and in [14] was “no binding (tested: not printed)” throughout.

B6: antibody 1915 (antibody, V domains shown)
VH: QVQLVESGGGVVQPGRSLRLSCAASGFTFSSYAMHWVRQAPGKGLEWVAVISYDGSNKYYADSVKGRFTISRDNSKNTLYLQMDSLRAQDTAVYYCATPRDMFSSGWSSPFDYWGQGTLVTVSS
VL: DIQMTQSPSSLSASVGDRVTITCQASQDISIYLTWYQQKPGKAPKLLIYGASNLEVEVPSRFSGSGSGTEFTLTISSLQPEDFATYFCQHSDDLPVTFGGGTKVEVK
Regarding B6, the binding result in experiment [11], in [12], in [13] and in experiment [14] was “no binding (tested: not printed)” throughout.

B7: antibody 1589 (antibody, V domains shown)
VH: EVQLVESGGGLIQVGGSLRLSCAASGLTVTSNYMNWVRQGPGKGLEWVSLIYSGGTTYYADSVKGRFTISRDDSKNTLYLQMNSLRAEDTAVYYCARPIVGARSGMDVWGQGTAVTVSS
VL: DIQMTQSPSSLSASVGDRVTITCQASQDINKYLNWYQQKPGKAPKLLIYDASNLETGVPSRFSGSGSGTDFTFTISSLQPEDLATYYCHQFDNLPGTFGGGTKVEIK
As to B7, the “Pseudo Neut, WA1/2020 IC50 (pM)” value in [2] was determined as 1170 pM. Moreover, the binding result was “no binding (tested: 10000 ng/ml)” in the experiment with MERS-COV (S1+S2), “no binding (tested: 10000 ng/ml)” in the experiment with MERS-COV (S2), “no binding (tested: 0.1 ug/mL)” in experiment [15] and “no binding (tested: 0.1 ug/mL)” in [16].
